Literature values in PMC6769837.

Experiments:
[1] = biological target: integrin αvβ6 (Homo sapiens) (UniProt P06756)
[2] = biological target: integrin αvβ8 (Homo sapiens) (UniProt P06756)
[3] = biological target: integrin αvβ3 (Homo sapiens) (UniProt P06756)

Kd [1]: 10.3 nM | Kd [2]: 0.013 nM | Kd [3]: 8.5 µM
Substance: LAP-TGFβ1 LAP (from UniProt P01137)
